Read-outs that look alike come from different tables or passages of the source.
Assays:
Test in all cases: fluorescence anisotropy
SAMHD1 T592A [1] = biological target: T1, SAMHD1 T592A (UniProt Q9Y3Z3 1-626, T592A)
SAMHD1 WT [2] = biological target: T2, SAMHD1 WT (UniProt Q9Y3Z3 1-626)
SAMHD1 WT [3] = biological target: T2, SAMHD1 WT; remark: listed apart in the source
SAMHD1 T592A [4] = biological target: T1, SAMHD1 T592A; remark: listed apart in the source
SAMHD1 WT [5] = biological target: T2, SAMHD1 WT; remark: listed apart in the source

T2 sequence (Q9Y3Z3 whole entry): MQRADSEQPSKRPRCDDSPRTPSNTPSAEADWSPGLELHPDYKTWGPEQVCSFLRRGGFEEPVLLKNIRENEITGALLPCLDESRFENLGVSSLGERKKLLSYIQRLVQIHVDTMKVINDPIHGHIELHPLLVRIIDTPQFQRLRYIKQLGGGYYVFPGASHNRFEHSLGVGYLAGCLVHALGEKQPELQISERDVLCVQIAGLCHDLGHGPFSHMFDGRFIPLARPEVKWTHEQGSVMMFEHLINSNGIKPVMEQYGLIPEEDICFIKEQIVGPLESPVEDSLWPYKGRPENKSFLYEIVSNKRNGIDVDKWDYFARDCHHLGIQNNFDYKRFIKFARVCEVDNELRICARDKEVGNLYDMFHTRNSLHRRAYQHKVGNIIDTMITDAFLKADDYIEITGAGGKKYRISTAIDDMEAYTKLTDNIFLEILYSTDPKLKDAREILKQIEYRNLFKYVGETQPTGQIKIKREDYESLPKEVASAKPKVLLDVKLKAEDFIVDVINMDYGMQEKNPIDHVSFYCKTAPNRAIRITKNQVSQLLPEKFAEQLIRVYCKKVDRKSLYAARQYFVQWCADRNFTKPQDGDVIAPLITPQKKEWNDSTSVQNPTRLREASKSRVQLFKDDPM
T1 sequence (Q9Y3Z3 whole entry T592A): as the sequence (Q9Y3Z3 whole entry) above, with T592A counted along it

B1: Scrambled DNA 90-mer (ssDNA)
DNA: ACTAGCTCAAGCGGGGGACACCCAGGTGTCTCCAACAGTCCGTAGATCGGACGGAGAAGAGGGGACCCCGCTAATGAGCGTGAGCAGAGA
binding result (SAMHD1 T592A [1]): no binding | binding result (SAMHD1 WT [2]): no binding

B2: HIV-1 LTR 90-mer (ssDNA)
DNA: AGCAGTGGCGCCCGAACAGGGACTTGAAAGCGAAAGTAAAGCCAGAGGAGATCTCTCGACGCAGGACTCGGCTTGCTGAAGCGCGCACGG
Kd (SAMHD1 WT [3]): 242 ± 51 nM | binding result (SAMHD1 T592A [4]): no binding | Kd (SAMHD1 WT [5]): 93 ± 8 nM

Source: article doi:10.1101/270843
